Results published in paper PMC5779698, “Identification and analysis of OsttaDSP, a phosphoglucan phosphatase from Ostreococcus tauri” (PLoS ONE, 2018).

Key:
[1] = target: OsttaDSP, dual specific phosphatase from Ostreococcus tauri, mature protein lacking the chloroplast transit peptide (Ostreococcus tauri); assay: SEC; HiPrep Sephacryl S-300 High-Resolution column, calibrated with a molecular weight kit; affinity-purified mature OsttaDSP, single peak of an estimated 54.4 kDa
purified protein = substrate: O=[N+]([O-])c1ccc(OP(=O)(O)O)cc1; assay: purified protein; format: biochemical, Ostreococcus tauri; details: pH 7, 37 °C, 2 mM DTT, hyperbolic saturation

stoichiometry N [1]	Molecule	K0.5 (purified protein)
2	OsttaDSP, dual specific phosphatase from Ostreococcus tauri, mature protein lacking the chloroplast transit peptide (enzyme)	
	OsttaDSP (Ostreococcus tauri) (protein, mature protein lacking the first 26 residues (predicted chloroplast transit peptide), 245 residues, N-terminal His6 tag kept, synthetic gene, pRSFDuet-1, E. coli BL21(DE3) pLys; homodimer) ATTTTRRGLADDDAYNAAMRAYSASPYEYKHDIGLYYHRIKPFLIVGTQPQTPADVDRLRETEGVTCVFNTQQEKDWKYWNVDYDSVRARAIETGMRHVRYPFEDFSADSLREGLPSAAAMLDAEIERGETVYLHCTAGMGRSPGLAIAYMYWFLDAYNTLDGAYEGLTSIRPCGPKKESIRGATCDLLAAIESDGKVEPLKRELEENEGVVLSIVSKERIQRAVRAMLLSTSDETVAKPWWKVW	22.7 ± 3.4 mM
